# Measurements reported in article PMC9063426, “MAP kinases differentially bind and phosphorylate NOS3 via two unique NOS3 sites” (FEBS Open Bio, 2022).
# Legend:
# [1] = target: AI peptide (NOS3 autoinhibitory loop site) (human); assay: BLI; N-terminally biotinylated NOS3 peptides on streptavidin sensors, inactive MAP kinases as analytes at 31-1000 nM; 25 °C; PBS with 10% glycerol, 0.005% tween, 1 mM DTT; global one-state association-then-dissociation fit
# [2] = target: NtMAP peptide (NOS3 N-terminal MAP kinase site) (human); assay: as above
# [3] = target: NOS3 AI peptide (autoinhibitory loop site), biotinylated (human); assay: BLI; N-terminally biotinylated NOS3 peptides on streptavidin sensors, inactive MAP kinases as analytes (31 to 1000 nM); 25 °C; PBS with 10% glycerol, 0.005% tween, 1 mM DTT; global one-state association-then-dissociation fit
# [4] = target: NOS3 NtMAP peptide (N-terminal MAP kinase site), biotinylated (human); assay: as above
# [5] = target: ERK2 (UniProt P63086); assay: BLI, biotinylated peptide on streptavidin sensor
Kd [1] [nM],koff [1] [s⁻¹],kon [1] [M⁻¹ s⁻¹],Kd [2] [nM],koff [2] [s⁻¹],kon [2] [M⁻¹ s⁻¹],koff [3] [s⁻¹],kon [3] [M⁻¹ s⁻¹],koff [4] [s⁻¹],kon [4] [M⁻¹ s⁻¹],"KD ([5]; reference: unphosphorylated NtMAP peptide, sites S114)","KD ([5]; reference: unphosphorylated AI peptide, sites S633)",Substance
170,0.002,12000,940,0.062,6600,0.00207,12100,0.00623,6600,–,–,"ERK2, inactive (unphosphorylated), His-purified (from UniProt P63086 1-358) (enzyme)"
3,–,84000,38,0.00054,14000,0.00025,84600,0.000543,14100,–,–,"GST-JNK1α1, inactive (unphosphorylated), made in house (from UniProt P45983-2 1-384) (enzyme)"
–,–,–,–,–,–,–,–,–,–,lost; reference 940,–,NOS3 (eNOS) NtMAP site (from UniProt P29474) NtMAP pS114 peptide
–,–,–,–,–,–,–,–,–,–,–,lost; reference 170,NOS3 (eNOS) autoinhibitory (AI) loop site (from UniProt P29474) AI pS633 peptide
